# From patent publication US20030018175A1
# Molecular target: human alpha-1-antitrypsin (Sigma) (human) (UniProt P01009)
# Test: cell-based or functional assay
# Chain of UniProt P01009 (P01009 25-418 limits assumed): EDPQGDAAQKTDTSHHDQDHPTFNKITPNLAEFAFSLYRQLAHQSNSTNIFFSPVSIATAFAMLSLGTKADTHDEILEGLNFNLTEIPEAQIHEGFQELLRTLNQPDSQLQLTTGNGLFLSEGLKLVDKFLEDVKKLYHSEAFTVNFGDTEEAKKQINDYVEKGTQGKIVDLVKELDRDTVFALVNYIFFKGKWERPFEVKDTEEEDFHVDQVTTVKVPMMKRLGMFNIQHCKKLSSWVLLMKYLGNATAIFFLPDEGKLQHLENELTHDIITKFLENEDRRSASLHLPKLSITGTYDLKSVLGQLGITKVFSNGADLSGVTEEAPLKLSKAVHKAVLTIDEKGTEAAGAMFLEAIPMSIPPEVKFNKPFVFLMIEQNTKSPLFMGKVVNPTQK
"% residual amidolytic activity, 16.6 µM inhibitor, 20 h at 37 °C [%]","% residual amidolytic activity, 42.3 µM inhibitor, 20 h at 37 °C [%]",Molecule
90,77,APC conjugate D189N+K191T (enzyme)
80,81,APC conjugate D214N (enzyme)
10,< 1,APC conjugate E307N+E309T (enzyme)
59,24,APC conjugate K191N+K193T (enzyme)
20,4,APC conjugate K217N+L219T (enzyme)
68,44,APC conjugate L386N+H388T (enzyme)
72,40,APC conjugate S336N+M338T (enzyme)
62,53,APC variant K251N (enzyme)
9,2,APC variant M338A (control) (enzyme)
7,< 1,wild-type COS 7 APC (enzyme)

# Further lines, the molecule ahead of its results:
Molecule,"% residual amidolytic activity, 16.6 µM inhibitor, 20 h at 37 °C [%]","% residual amidolytic activity, 42.3 µM inhibitor, 20 h at 37 °C [%]"
APC conjugate M338N (enzyme),38,12
APC conjugate S305N+E307T (enzyme),42,9
APC conjugate T253N+D255T (enzyme),56,38
APC variant D189N+K191N (control) (enzyme),12,< 1
APC variant D214A (control) (enzyme),21,1
APC variant S190N+K192T (enzyme),28,5
APC variant S252N (enzyme),62,34
APC variant Y302N (enzyme),50,30
"wild-type plasma APC (enzyme, two chains: light 1-155, heavy 170-419) ANSFLEELRHSSLERECIEEICDFEEAKEIFQNVDDTLAFWSKHVDGDQCLVLPLEHPCASLCCGHGTCIDGIGSFSCDCRSGWEGRFCQREVSFLNCSLDNGGCTHYCLEEVGWRRCSCAPGYKLGDDLLQCHPAVKFPCGRPWKRMEKKRSHLLIDGKMTRRGDSPWQVVLLDSKKKLACGAVLIHPSWVLTAAHCMDESKKLLVRLGEYDLRRWEKWELDLDIKEVFVHPNYSKSTTDNDIALLHLAQPATLSQTIVPICLPDSGLAERELNQAGQETLVTGWGYHSSREKEAKRNRTFVLNFIKIPVVPHNECSEVMSNMVSENMLCAGILGDRQDACEGDSGGPMVASFHGTWFLVGLVSWGEGCGLLHNYGVYTKVSRYLDWIHGHIRDKEAPQKSWAP",10,2
